# Results published in US8663616B2, “Enzymatic peracid generation for use in oral care products” (E I du Pont de Nemours and Company, priority 2010, dated 2014).
# B1: EZ-26: C277S-EPEPEPEPEPE-Link1-CXHG102-H6, SEQ ID NO: 450 (protein)
# chain: MAFFDLPLEELKKYRPERYEEKDFDEFWEETLAESEKFPLDPVFERMESHLKTVEAYDVTFSGYRGQRIKGWLLVPKLEEEKLPCVVQYIGYNGGRGFPHDWLFWPSMGYICFVMDTRGQGSGWLKGDTPDYPEGPVDPQYPGFMTRGILDPRTYYYRRVFTDAVRAVEAAASFPQVDQERIVIAGGSQGGGIALAVSALSKKAKALLCDVPFLCHFRRAVQLVDTHPYAEITNFLKTHRDKEEIVFRTLSYFDGVNFAARAKIPALFSVGLMDNISPPSTVFAAYNYYAGPKEIRIYPYNNHEGGGSFQAVEQVKFLKKLFEKGEPEPEPEPEPEPEPEGPGSGGAGSPGSAGGPGSLRFLARRFLKLRRARKWWNAWKVWVTRHHHHHH
# B2: EZ-24: C277S-…-Link1-CXH104-H6, SEQ ID NO: 448 (protein)
# chain: MAFFDLPLEELKKYRPERYEEKDFDEFWEETLAESEKFPLDPVFERMESHLKTVEAYDVTFSGYRGQRIKGWLLVPKLEEEKLPCVVQYIGYNGGRGFPHDWLFWPSMGYICFVMDTRGQGSGWLKGDTPDYPEGPVDPQYPGFMTRGILDPRTYYYRRVFTDAVRAVEAAASFPQVDQERIVIAGGSQGGGIALAVSALSKKAKALLCDVPFLCHFRRAVQLVDTHPYAEITNFLKTHRDKEEIVFRTLSYFDGVNFAARAKIPALFSVGLMDNISPPSTVFAAYNYYAGPKEIRIYPYNNHEGGGSFQAVEQVKFLKKLFEKGEPEPEPEGPGSGGAGSPGSAGGPGSRMLSRILRMFVRILKRERLSQVRGLFVHHHHHH
# B3: EZ-25: C277S-EPEPE-Link1-EPEPE-CXHG102-H6, SEQ ID NO: 449 (protein)
# chain: MAFFDLPLEELKKYRPERYEEKDFDEFWEETLAESEKFPLDPVFERMESHLKTVEAYDVTFSGYRGQRIKGWLLVPKLEEEKLPCVVQYIGYNGGRGFPHDWLFWPSMGYICFVMDTRGQGSGWLKGDTPDYPEGPVDPQYPGFMTRGILDPRTYYYRRVFTDAVRAVEAAASFPQVDQERIVIAGGSQGGGIALAVSALSKKAKALLCDVPFLCHFRRAVQLVDTHPYAEITNFLKTHRDKEEIVFRTLSYFDGVNFAARAKIPALFSVGLMDNISPPSTVFAAYNYYAGPKEIRIYPYNNHEGGGSFQAVEQVKFLKKLFEKGEPEPEPEGPGSGGAGSPGSAGGPGSEPEPEPELRFLARRFLKLRRARKWWNAWKVWVTRHHHHHH
# Assay: Peracetic acid generated in solution by C277S CXH fusions (Example 9)
# Conditions: 0.5 μM enzyme, sarkosyl buffer, 100 mM triacetin, 100 mM H2O2, pH 7.2, 10 min, 37° C.
row,Molecule,Peracetic acid (ppm) In Solution
1,B1,2273 ppm
2,B2,2951 ppm
3,B3,1703 ppm

# Assay: Peracetic acid from C277S CXH fusions exposed to hydroxyapatite discs (Example 9)
# Conditions: disc-bound enzyme; 100 mM triacetin, 100 mM H2O2, 30 min, 37° C.; no enzyme control subtracted
row,Molecule,"Peracetic acid (ppm) Exposed to Hydroxyapatite, Disc"
1,B1,1849 ppm
2,B2,3453 ppm
3,B3,1791 ppm

# Same assay, conditions: unbound enzyme in supernatant after 10 μM enzyme on disc; no enzyme control subtracted
row,Molecule,"Peracetic acid (ppm) Exposed to Hydroxyapatite, Supernatant"
1,B1,1636 ppm
2,B2,719 ppm
3,B3,1029 ppm
